Source: US20210139610A1, “COMPOSITIONS AND METHODS FOR MEDIATING EPS” (priority 2018, published 2021)
“Also recorded” adds a separate entry of the source.

What was measured:
[1] = biological target: T1, DNABII-polyamine dependent DNA structures (Haemophilus influenzae, UniProt P43722); assay: EPS scaffold mimetic (gDNA + HU + spermidine) structures, CLSM; type: biochemical; settings: gDNA 2 μg/ml + HU + spermidine; Pulmozyme treatment
T1 sequence (P43722 whole entry, looked up): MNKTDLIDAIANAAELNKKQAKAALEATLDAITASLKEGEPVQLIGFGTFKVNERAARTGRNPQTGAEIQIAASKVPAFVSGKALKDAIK
Method: FIGS. 4A-4B: Anti-DNABII disrupts DNABII-polyamine (PA) dependent structures. (FIG. 4A) DNA structures were formed by incubating spermidine (300 μM) and HU (1 μM) in buffer that contained genomic DNA (gDNA; 2 μg/ml) for 40 h. Immunofluorescence CLSM images of DNABII-polyamine dependent DNA structures. Probed for DNABII proteins (white; indicated on the right side of the image) and counterstained with DAPI (white; indicated on the left side of the image). DNABII polyamine dependent DNA structures incorporate DNABII proteins. (FIG. 4B) EPS structures were formed as in (FIG. 4A) for 24 h and treated for additional 16 h with 1:50 dilution of DNABII antiserum (indicated below the image). Fluorescence CLSM images stained with DAPI (white). DNABII-polyamine dependent DNA structures require DNABII proteins.
FIG. 45: Polyamines and DNABII proteins stimulate Z-DNA, which is DNAse resistant. Immunofluorescence images of EPS scaffold mimetic formed de novo by addition of DNABII protein (HUNTHI, 500 nM) and spermidine (300 μM) to purified genomic DNA (2 μg/ml) and incubation at 37° C. for 16 h. […]
Applicants hypothesized that DNABII and polyamines interact with eDNA synergistically to confer DNase resistance to mature biofilms. […] Degradation was assessed by agarose gel electrophoresis and UV illumination. […]

[2] = tested on: Z-DNA and B-DNA in the NTHI biofilm extracellular matrix; assay: Immunofluorescence CLSM for Z-DNA / B-DNA in NTHI biofilms; type: cell-based, Non-typeable Haemophilus influenzae; settings: DNase (Pulmozyme; 5 units) at 24 h, read at 40 h
Method: FIG. 31: DNase degrades B-DNA, but not Z-DNA, within the biofilm extracellular matrix. DNase (Pulmozyme; 5 units) was added at 24 h after biofilm seeding to in vitro pre-formed NTHI biofilms.
FIG. 37: HMGB1 destabilizes Z-DNA structures in the biofilm extracellular matrix. Non-typeable Haemophilus influenzae biofilms were grown in supplemented BHI media in 8 well chambered coverglass slides at 37° C. and 5% CO2. After 24 h, biofilms were treated as indicated above. After 40 h, biofilms were washed, probed with primary antibodies directed against Z-DNA (light gray dots), a fluorescent secondary antibody, stained with DAPI (gray regions), and visualized via fluorescence microscopy.
FIGS. 50A-50B: Equilibrium shift of B-DNA to Z-DNA conversion alters biofilm formation. NTHI biofilms formed for 24 h were incubated with cerium chloride (CeCl3) or chloroquine for an additional 16 h and were probed with naive or anti-Z-DNA (white) by immunofluorescence CLSM.
FIGS. 51A-51B: Equilibrium shift of B-DNA to Z-DNA conversion alters biofilm formation. NTHI biofilms formed for 24 h were incubated with cerium chloride (CeCl3) (FIG. 51A) or chloroquine (FIG. 51B) for an additional 16 h. Z-DNA was measured by IF and CLSM using anti-Z-DNA and cells were stained with the membrane stain FM4-64. Bars represent the SEM. Statistical significance compared to control was assessed by paired t-tests, *P<0.05, **P<0.01.

B1: DNase: Pulmozyme, a recombinant human DNase used for management of cystic fibrosis patients (protein, UniProt P24855 23-282, looked up)
Deoxyribonuclease-1: LKIAAFNIQTFGETKMSNATLVSYIVQILSRYDIALVQEVRDSHLTAVGKLLDNLNQDAPDTYHYVVSEPLGRNSYKERYLFVYRPDQVSAVDSYYYDDGCEPCGNDTFNREPAIVRFFSRFTEVREFAIVPLHAAPGDAVAEIDALYDVYLDVQEKWGLEDVMLMGDFNAGCSYVRPSQWSSIRLWTSPTFQWLIPDSADTTATPTHCAYDRIVVAGMLLRGAVVPDSALPFNFQAAYGLSDQLAQAISDHYPVEVMLK
effect of DNase on EPS scaffold mimetic structures [1]: DNA structures were resistant to DNase; also recorded: selectively eliminated B-DNA whereas Z-DNA remained intact | B-DNA form eDNA in NTHI biofilm matrix [2]: degrades B-DNA form eDNA structures | Z-DNA form eDNA in NTHI biofilm matrix [2]: reveals extensive Z-DNA form eDNA
